This is an account of results in patent publication US20200157194A1 (Regeneron, published 2020).

For assay [1], the target named is T1, recombinant human GREM1 (hGREM1-His; C-terminal 10His tagged, R&D, #5190-GR) (human, UniProt O60565 25-184).
T1 construct: range 25-184; also called recombinant human GREM1 with a C-terminal decahistidine tag
T1 sequence: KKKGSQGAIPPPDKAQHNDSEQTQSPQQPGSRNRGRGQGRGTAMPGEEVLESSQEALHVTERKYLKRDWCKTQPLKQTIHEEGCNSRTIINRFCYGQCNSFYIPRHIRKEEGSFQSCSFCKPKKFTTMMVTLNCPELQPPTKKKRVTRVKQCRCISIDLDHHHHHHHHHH
Description: BLI Octet, mAb captured, 100 nM GREM1 without vs with 5 uM heparin.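 Further: octet Red96 biolayer interferometry at 25 °C, antibodies captured on anti-human IgG Fc biosensors, association of GREM1 measured with versus without heparin in HEPES-buffered saline, pH 7.4.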 Background: Biolayer interferometry detects binding as a change in optical thickness at a sensor tip.

The target in assay [2] is T1, recombinant human GREM1 (hGREM1-His; …). Description: BLI Octet, mAb captured, 100 nM GREM1.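 Further: octet Red96 biolayer interferometry at 25 °C in pH 7.4 HEPES saline buffer, antibodies held on anti-human IgG Fc capture biosensors, then exposed to GREM1.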
Assay [3] deals with T2, human GREM1 (hGREM1-His; SEQ ID NO: 595) (human, UniProt O60565 25-184).
T2 construct: also called biotin-hGREM1-His; recombinant human GREM1 protein
T2 sequence: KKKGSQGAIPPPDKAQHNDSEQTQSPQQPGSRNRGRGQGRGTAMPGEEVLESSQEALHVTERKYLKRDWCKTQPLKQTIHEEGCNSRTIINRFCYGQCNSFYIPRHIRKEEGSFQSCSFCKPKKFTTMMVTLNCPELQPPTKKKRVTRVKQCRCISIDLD
Put plainly: SPR, Biacore T200, 37 C, mAb captured, hGREM1-His injected.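 Further: HBS-EP running buffer containing heparin, association and dissociation phases tracked, KD computed as koff over kon and half-life derived from koff.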 Background: In SPR one partner is held on a chip, and binding of the other changes the refractive index at the surface.

The target in assay [4] is T1, recombinant human GREM1 (hGREM1-His; …). Description: BLI Octet, mAb captured, 100 nM GREM1 + 5 uM heparin.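 Further: octet Red96 biolayer interferometry at 25 °C, antibodies captured on anti-human IgG Fc biosensors, pH 7.4 HEPES buffer with 0.1 mg/mL BSA.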
Assay [5] shares this target. Put plainly: cell-based or functional assay.
In assay [6] the target is T2, human GREM1 (hGREM1-His; SEQ ID NO: 595). Description: competition ELISA, biotin-hGREM1-His (100 pM) binding to coated hBMP4.
Assay [7] has the same target. Description: SPR, Biacore T200, 25 C, mAb captured, hGREM1-His injected.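 Further: Heparin-supplemented HBS-EP+ used as running buffer, association and dissociation phases followed, Kd computed as koff divided by kon and half-life derived from koff.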
The target in assay [8] is T1, recombinant human GREM1 (hGREM1-His; …). Put plainly: cell-based or functional assay. The source holds these as a separate data set.

B1: H4H6250P (antibody, human IgG4, V domains shown)
VH: QVQLVESGGGVVQPGRSLRLSCAASGFTFSNYGMHWVRQAPGKGLEWVAVIWYDGSNKYYADSVKGRFTISRDNSRKTLYLQMNSLRAEDTAIYYCTRDDYGDYDYPFDYWGQGTLVTVSS
VL: DIQMTQSPSSLSASVGDRVTITCRASQGIRNDLGWYQQKPGKAPKRLIYAASSLQSGVPSRFSGTGSGTEFTLTISSLQPEDFATYYCLQHNSYPPFTFGPGTKVDIK
notes: H4H prefix = human IgG4 Fc
Regarding B1, in assay [1], the “Reduction in Signal from Heparin at 30 sec” value (“Reduction … at 30 sec” for short) worked out at 0.14 nm and the “Reduction in Signal from Heparin at 300 sec” value (“Reduction … at 300 sec” below) turned out to be 0.05 nm. In addition, in assay [2], the “Binding Signal with 30 sec Association” value was found to be 0.2 nm and the “Binding Signal with 300 sec Association” value is 0.37 nm. Besides, in assay [3], the affinity, expressed as Kd, was 5.93 nM; the dissociation rate constant (koff) (commonly the rate constant with which the complex falls apart) worked out at 0.000882 s⁻¹; the kon (in general, the rate constant with which the complex forms) was 149000 M⁻¹ s⁻¹; the t1/2 came to 13 min. Besides, in assay [4], the “Binding Signal with 30 sec Association” value worked out at 0.06 nm and the “Binding Signal with 300 sec Association” value amounted to 0.32 nm. Further, the “hGREM1-His Inhibition IC50, M; W-20-17 cell differentiation assay (alkaline phosphatase)” value in assay [5] turned out to be 12 nM. In assay [6], the “% blocked at maximum Ab tested (20 nM)” value is 42% and the IC50 (in general, the midpoint of a concentration-inhibition curve) is 0.11 nM. Moreover, in assay [7], the Kd – broadly, the concentration at which binding is half-saturated – worked out at 3.3 nM; the koff turned out to be 0.000297 s⁻¹; the kon was determined as 90100 M⁻¹ s⁻¹; the t1/2 was found to be 39 min. Further, the “IC50 [M], inhibition of hGREM1-His, W-20-17/BRE-luc luciferase (100 pM hBMP4, 10 nM hGREM1-His)” value (“IC50 [M], inhibition of hGREM1-His” below) in assay [8] worked out at 4.4e-10 M.

B2: H4H6252P (antibody, human IgG4, V domains shown)
VH: QVQLVESGGGVVQPGRSLRLSCAASGFTFSNYGMHWVRQAPGRGLEWVAVIWFDGSNKYYADSVKGRFTISRDNSKNTLYLQMNSLRSEDTAVYYCTRDDYGDYDYPFDYWGQGTLVTVSS
VL: DIQMTQSPSSLSASVGDRVTITCRASQGIRNDLGWYQQKPGKAPKRLIYAASSLQSGVPSRFSGSGSGTEFTLTISSLQPEDFATYYCLQYNTYPPFTFGPGTKVDIK
notes: H4H prefix = human IgG4 Fc; also called H4H6252S
On to B2, for which, in assay [1], the “Reduction … at 30 sec” value was determined as 0.19 nm and the “Reduction … at 300 sec” value amounted to 0.09 nm. Also, in assay [2], the “Binding Signal with 30 sec Association” value was 0.23 nm and the “Binding Signal with 300 sec Association” value came to 0.44 nm. In assay [3], this molecule displayed a Kd of 4.14 nM, a koff of 0.000459 s⁻¹, a kon of 111000 M⁻¹ s⁻¹ and a t1/2 of 25 min. For the same molecule, in assay [4], the “Binding Signal with 30 sec Association” value worked out at 0.04 nm and the “Binding Signal with 300 sec Association” value was found to be 0.35 nm. Further, in assay [5], the “hGREM1-His Inhibition IC50, M; W-20-17 cell differentiation assay (alkaline phosphatase)” value worked out at 6.1 nM. Besides, in assay [6], the “% blocked at maximum Ab tested (20 nM)” value stood at 53% and the IC50 amounted to 0.19 nM. In assay [7], this molecule returned a dissociation constant (Kd) of 1.02 nM, a koff of 7.58e-05 s⁻¹, an association rate constant (kon) of 74600 M⁻¹ s⁻¹ and a t1/2 of 152 min. Moreover, the “IC50 [M], inhibition of hGREM1-His” value in assay [8] was determined as 8.2e-10 M.

B3: H4H6246P (antibody, human IgG4, V domains shown)
VH: QVQLVESGGGVVQPGRSLRLSCAASGFTFSSYGMHWVRQAPGKGLEWVAIIWYDGSNRYYADSVKGRFTISRDNSRNTLYLQMNSLRAEDTAVYYCARDEYGDYDYPFDYWGQGTLVTVSS
VL: DIQMTQSPSSLSASVGDRVTITCRASQGIRNDLGWFQQKPGKAPKRLIYAASSLQSGVPSRFSGSGSGTEFTLTISSLQPEDFATYYCLQHNTYPPFTFGPGTKVDIK
notes: H4H prefix = human IgG4 Fc
With B3, in assay [1], the “Reduction … at 30 sec” value stood at 0.13 nm and the “Reduction … at 300 sec” value came out at 0.04 nm. Moreover, in assay [2], the “Binding Signal with 30 sec Association” value was 0.19 nm and the “Binding Signal with 300 sec Association” value worked out at 0.38 nm. Also, in assay [3], binding was put at a Kd of 3.5 nM, the koff is 0.000444 s⁻¹, the on-rate constant (kon) is 127000 M⁻¹ s⁻¹ and the t1/2 is 26 min. In addition, in assay [4], the “Binding Signal with 30 sec Association” value turned out to be 0.06 nm and the “Binding Signal with 300 sec Association” value came out at 0.34 nm. Also, in assay [5], the “hGREM1-His Inhibition IC50, M; W-20-17 cell differentiation assay (alkaline phosphatase)” value stood at 6.2 nM. Moreover, in assay [6], the “% blocked at maximum Ab tested (20 nM)” value stood at 62% and the IC50 was determined as 1.5 nM. Further, in assay [7], the dissociation constant (Kd) was determined as 2.59 nM, the koff was found to be 0.000192 s⁻¹, the kon was 73900 M⁻¹ s⁻¹ and the t1/2 came to 60 min. Also, the “IC50 [M], inhibition of hGREM1-His” value in assay [8] came to 5.6e-10 M.

B4: H4H6248P (antibody, human IgG4, V domains shown)
VH: QVQLVESGGGVVQPGRSLRLSCAASGFTFSNYGMHWVRQVPGKGLEWVAVIWYDGSNKYYADSVKGRFTISRDNSKNTLYLQMNSVRAEDTAVYYCARDDYGDSPGFDYWGQGTLVTVSS
VL: EIVMTQSPATLSVSPGERATLSCRASQSVSSSLAWYQQKPGQAPRLLIYDASTRATGIPARFSGSGSGTEFTLTISGLQSEDFAVYYCQQYNNWPPWTFGQGTKVEIK
notes: H4H prefix = human IgG4 Fc
In the case of B4, in assay [1], the “Reduction … at 30 sec” value was determined as 0.17 nm and the “Reduction … at 300 sec” value was 0.05 nm. In addition, in assay [2], the “Binding Signal with 30 sec Association” value was determined as 0.21 nm and the “Binding Signal with 300 sec Association” value is 0.42 nm. Moreover, in assay [3], the Kd is 5.69 nM, the dissociation rate constant (koff) worked out at 0.000487 s⁻¹, the kon was 85500 M⁻¹ s⁻¹ and the t1/2 amounted to 24 min. In assay [4], the “Binding Signal with 30 sec Association” value was 0.04 nm and the “Binding Signal with 300 sec Association” value is 0.37 nm. The “hGREM1-His Inhibition IC50, M; W-20-17 cell differentiation assay (alkaline phosphatase)” value in assay [5] was 5.6 nM. Further, in assay [6], the “% blocked at maximum Ab tested (20 nM)” value worked out at 62% and the IC50 came out at 0.21 nM. In assay [7], this molecule displayed a Kd of 1.54 nM, a dissociation rate constant (koff) of 7.73e-05 s⁻¹, a kon of 50300 M⁻¹ s⁻¹ and a t1/2 of 149 min. Also, the “IC50 [M], inhibition of hGREM1-His” value in assay [8] was found to be 5.3e-10 M.

B5: H4H6256P (antibody, human IgG4, V domains shown)
VH: QVQLVESGGGVVQPGRSLRLSCAASGFTFSAYGMHWVRQGPGKGLEWVAVIWYDGSNKYYADSVKGRFTISRDNSKNTLYLQMNRLRAEDTAVYYCARDDYGDSPGFDHWGQGTLVTVSS
VL: EIVMTQSPATLSVSPGERATLSCRASQSVSSELAWYQQKPGQAPRLLLYGASTRATGIPARFSGSGSGTEFTLTISSLQSEDFAVYYCQQYSNWPPWTFGQGTKVEIK
notes: H4H prefix = human IgG4 Fc
Take B5: in assay [1], the “Reduction … at 30 sec” value was 0.13 nm and the “Reduction … at 300 sec” value was determined as 0.02 nm. Also, in assay [2], the “Binding Signal with 30 sec Association” value is 0.2 nm and the “Binding Signal with 300 sec Association” value is 0.4 nm. In assay [3], this molecule returned a dissociation constant (Kd) of 4.08 nM, a koff of 0.000466 s⁻¹, a kon of 114000 M⁻¹ s⁻¹ and a t1/2 of 25 min. Besides, in assay [4], the “Binding Signal with 30 sec Association” value was found to be 0.07 nm and the “Binding Signal with 300 sec Association” value is 0.38 nm. For the same molecule, the “hGREM1-His Inhibition IC50, M; W-20-17 cell differentiation assay (alkaline phosphatase)” value in assay [5] was found to be 5.7 nM. Besides, in assay [6], the “% blocked at maximum Ab tested (20 nM)” value turned out to be 75% and the IC50 turned out to be 0.087 nM. In assay [7], this molecule displayed a Kd of 1.19 nM, a koff of 0.000107 s⁻¹, a kon of 90000 M⁻¹ s⁻¹ and a t1/2 of 108 min. For the same molecule, the “IC50 [M], inhibition of hGREM1-His” value in assay [8] turned out to be 5.4e-10 M.
